Results: US7728193B2, “Phytochrome-interacting protein and a use thereof” (Genomine Inc., priority 2004, dated 2010)

Tests used:
GST-PAPP5 = molecular target: T1, GST-PAPP5 (Arabidopsis thaliana, UniProt Q84XU2); experiment: In vitro phosphatase assay of GST-PAPP5 with ρNPP as substrate: effect of arachidonic acid and okadaic acid; assay type: biochemical
T1 sequence (Q84XU2 1-484 isoform Q84XU2-2): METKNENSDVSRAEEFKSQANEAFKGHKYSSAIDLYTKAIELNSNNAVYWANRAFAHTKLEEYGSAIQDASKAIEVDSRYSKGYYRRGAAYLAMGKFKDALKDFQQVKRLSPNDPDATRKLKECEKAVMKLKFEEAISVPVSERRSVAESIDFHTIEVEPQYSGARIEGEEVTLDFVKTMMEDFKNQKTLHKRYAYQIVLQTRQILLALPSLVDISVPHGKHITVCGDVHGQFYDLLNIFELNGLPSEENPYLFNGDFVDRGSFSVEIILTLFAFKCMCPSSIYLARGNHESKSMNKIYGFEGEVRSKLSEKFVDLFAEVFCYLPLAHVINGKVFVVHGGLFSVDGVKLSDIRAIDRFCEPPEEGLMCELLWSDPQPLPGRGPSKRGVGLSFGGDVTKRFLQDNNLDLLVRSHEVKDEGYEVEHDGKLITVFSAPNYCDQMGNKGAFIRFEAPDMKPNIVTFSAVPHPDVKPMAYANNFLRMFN
Procedure: In order to examine whether the inventive PAPP5 protein has enzymatic activity, an enzymatic assay was performed using […] ρ-nitrophenyl phosphate (ρNPP) as a substrate. First, the GST-PAPP5 fusion protein purified in Example <4-1> was prewarmed at 30° C. for 1 minute. The prewarmed enzyme solution was added to 100 μl of kinase/phosphatase (KP) buffer (20 mM Tris-HCl pH 7.5, 30 mM MgCl2, 1 mM EDTA, 1 mM EGTA, 0.1% β-mercaptoethanol, 0.1% ethanol) containing O-400 mM ρNPP to initiate a reaction. […] . After reaction at 30° C. for 15 minutes, 900 μl of 0.25N NaOH was added to terminate the reaction. The absorbance at 410 nm was measured. After subtracting the absorbance value of the control reaction solution containing all the components except for the enzyme from that of the reaction solution containing the enzyme, the rate was calculated using a millimolar extinction coefficient (17.8) of ρ-nitrophenolate ions.
In order to confirm if the phosphatase activity of the inventive PAPP5 protein is activated by arachidonic acid, 0-300 μM arachidonic acid was added to a reaction mixture in the presence of 100 mM ρNPP, and the enzymatic activity was measured according to the same method as Example <6-1>.
Thus, the inhibitory effect of okadaic acid on the phosphatase activity of GST-PAPP5 was examined. As a result, the IC50 of okadaic acid, at which the enzyme activity is inhibited by 50%, was 5 nM (data not shown).
(§1) Thus, in order to confirm if PAPP5 also have this property, the present inventors examined the phosphatase activities of GST-PAPP5, GST-TPR and GST-PP2Ac in the same manner as in Example <6-1>. At this time, the concentration of ρNPP was 100 mM.

[1] = system: autophosphorylated oat phytochrome A; experiment: Dephosphorylation of autophosphorylated phytochrome by PAPP5 in vitro; assay type: biochemical; conditions: 1 μg fusion protein, 30 minutes
Procedure: First, KP buffer (20 mM Tris-HCl pH7.5, 30 mM MgCl2, 1 mM EDTA, 1 mM EGTA, 0.1% β-mercaptoethanol, 0.1% ethanol) containing 1 μg of purified oat phytochrome A (provided from Kumho Life and Environmental Science Laboratory, Korea) was set on ice and irradiated with Rc light output of 50 μmolS^−1m^−2 at 664 nm for 5 minutes. Then, the reaction solution was allowed to react with [γ-^32P]ATP in dark conditions for 30 minutes (autophosphorylation of phytochrome A). Following addition of 1 μg of each of the fusion proteins GST-PAPP5, GST-TPR and GST-PP2Ac prepared in Examples <4-1> and <5-1>, the reaction continued for more 30 minutes, and then stopped by adding 12 μl of 5× Tris-glycine SDS sample buffer under dim green safe light.
Next, the present inventors investigated whether the phosphatase activity of PAPP5 depends on a change in the spectroscopic structure (photoconversion) of phytochrome molecules (Pr⇄Pfr). KP buffer solution containing phytochrome was set on ice and irradiated with a Rc light output of 50 μmolS^−1m^−2 at 664 nm (conversion of phytochrome into Pfr form) or a FRc light output of 50 μmolS^−1m^−2 at 748 nm (conversion of phytochrome into […]) for 5 minutes. Then, the autophosphylation/dephosphorylation test of phytochrome was performed in the same manner as described above.

[2] = molecular target: autophosphorylated oat Pfr phytochrome A (oat)
phytochromes = experiment: Quantitative yeast two-hybrid assay (β-galactosidase activity); assay type: cell-based, Arabidopsis thaliana; conditions: PHYA or PHYB bait, EGY48 yeast
Procedure: In order to quantitatively assay the interaction between the TPR domain of PAPP5 and phytochromes, each of recombinant vectors (preys) for the TPR domain of PAPP5 and for the PP2A catalytic domain of PAPP5 were prepared, respectively.
A PHYA gene or a PHYB gene was prepared by performing PCR according to the same method as in Example <4-2>, and inserted into a pGilda vector. The recombinant vector was used as a bait. The prepared bait or prey was co-introduced into an EGY48 yeast strain together with a pSH18-34 reporter plasmid. The transformed strain was cultured until the OD600 value reached about 0.7. The cultured cells were washed one time with Z-buffer solution (60 mM Na2HPO4, 40 mM NaH2PO4, 10 mM KCl, 1 mM MgSO4, pH 7.0), and then re-suspended in the solution. Thereafter, the solution was frozen with liquid N2. The frozen solution was dissolved, to which β-mercaptoethanol and ONPG (o-nitrophenyl-β-D-galactopyranoside) were then added at final concentrations of 0.2% and 0.67 mg/ml, respectively. The dissolved solution was allowed to react for 30 minutes at 37° C. Next, Na2CO3 was added to the solution at a final concentration of 0.3 M to terminate the reaction. The absorbance at […] was measured, and the β-galactosidase activity was determined in Miller units (Miller, J. H. Experiments in Molecular Genetics (Cold Spring Harbor Laboratory, Cold Spring harbor, N.Y., 1972)).

[3] = In vitro phosphatase assay: enzymatic activity of PAPP5 and its domain fragments on ρNPP; assay type: biochemical; conditions: 100 mM ρNPP; regardless of the addition of arachidonic acid
Procedure: In order to examine whether the inventive PAPP5 protein has enzymatic activity, an enzymatic assay was performed using […] ρ-nitrophenyl phosphate (ρNPP) as a substrate. First, the GST-PAPP5 fusion protein purified in Example <4-1> was prewarmed at 30° C. for 1 minute. The prewarmed enzyme solution was added to 100 μl of kinase/phosphatase (KP) buffer (20 mM Tris-HCl pH 7.5, 30 mM MgCl2, 1 mM EDTA, 1 mM EGTA, 0.1% β-mercaptoethanol, 0.1% ethanol) containing O-400 mM ρNPP to initiate a reaction. To examine the autohydrolysis of ρNPP at each substrate concentration, the GST-PAPP5 enzyme solution was not added to a control group. After reaction at 30° C. for 15 minutes, 900 μl of 0.25N NaOH was added to terminate the reaction. The absorbance at 410 nm was measured. After subtracting the absorbance value of the control reaction solution containing all the components except for the enzyme from that of the reaction solution containing the enzyme, the rate was calculated using a millimolar extinction coefficient (17.8) of ρ-nitrophenolate ions.
as §1

phytochrome molecules = experiment: Pull-down assay with PAPP5 domain fragments; assay type: binding, Arabidopsis thaliana
Procedure: Thereafter, according to the same method as in Example <4-1>, an in vitro assay was performed on each of the proteins which have been expressed and purified in E. coli.

C=C1[C@@H](O)[C@@H]2O[C@]3(CC[C@H](/C=C/[C@@H](C)[C@@H]4CC(C)=C[C@@]5(O[C@H](C[C@@](C)(O)C(=O)O)CC[C@H]5O)O4)O3)CC[C@H]2O[C@@H]1[C@@H](O)C[C@H](C)[C@H]1O[C@@]2(CCCCO2)CC[C@H]1C [okadaic acid]
IC50 (GST-PAPP5; phosphatase activity of GST-PAPP5, data not shown, read-out: IC50 of okadaic acid, at which the enzyme activity is inhibited by 50%): 5 nM

GST-PAPP5: a fusion protein of GST and full-length PAPP5
dephosphorylation of autophosphorylated oat Pfr phytochrome A [1]: about 80%

GST-PAPP5 fusion protein (enzyme)
dephosphorylation of autophosphorylated phytochrome A (autoradiography after SDS-PAGE) [2]: 80%

CCCCC/C=C\C/C=C\C/C=C\C/C=C\CCCC(=O)O [arachidonic acid]
arachidonic acid concentration at which activity of GST-PAPP5 reached the stationary phase (GST-PAPP5; 0-300 μM arachidonic acid, 100 mM ρNPP): above 100 μM | increase of phosphatase activity of GST-PAPP5 by arachidonic acid (GST-PAPP5; 100 mM ρNPP): about five times increased

B1: B42-PP2Ac: TPR domain-deleted PP2A catalytic domain of PAPP5 as yeast two-hybrid prey (protein)
chain: SVPVSERRSVAESIDFHTIEVEPQYSGARIEGEEVTLDFVKTMMEDFKNQKTLHKRYAYQIVLQTRQILLALPSLVDISVPHGKHITVCGDVHGQFYDLLNIFELNGLPSEENPYLFNGDFVDRGSFSVEIILTLFAFKCMCPSSIYLARGNHESKSMNKIYGFEGEVRSKLSEKFVDLFAEVFCYLPLAHVINGKVFVVHGGLFSVDGVKLSDIRAIDRFCEPPEEGLMCELLWSDPQPLPGRGPSKRGVGLSFGGDVTKRFLQDNNLDLLVRSHEVKDEGYEVEHDGKLITVFSAPNYCDQMGNKGAFIRFEAPDMKPNIVTFSAVPHPDVKPMAYANNFLRMFN
activity of interaction with phytochromes (β-galactosidase activity) (phytochromes): remarkable reduction

B2: GST-PP2Ac: fusion of GST and PP2A catalytic domain of PAPP5 with a deletion of amino acids 1-138 in SEQ ID NO: 4 (protein)
chain: B1 chain
level of dephosphorylation of autophosphorylated oat Pfr phytochrome A (in words) [1]: very low | phosphatase activity relative to GST-PAPP5 with no arachidonic acid [3]: five times higher activity

B3: GST-TPR: fusion protein of GST and TPR domain of PAPP5, amino acids 1-138 of SEQ ID NO: 4 (protein)
chain: METKNENSDVSRAEEFKSQANEAFKGHKYSSAIDLYTKAIELNSNNAVYWANRAFAHTKLEEYGSAIQDASKAIEVDSRYSKGYYRRGAAYLAMGKFKDALKDFQQVKRLSPNDPDATRKLKECEKAVMKLKFEEAIS
ability to interact with phytochrome molecules (pull-down) (phytochrome molecules): has the ability to interact | level of dephosphorylation of autophosphorylated oat Pfr phytochrome A (in words) [1]: do not affect the phosphorylation status
